Test results from paper PMC3905668.

Experiments:
[1] = biological target: N-terminally KGN-tagged Vpr (KGN-Vpr) (UniProt P12520); assay: bimolecular fluorescence complementation (BiFC), flow cytometry on cells; conditions: 293T cells, 48 hours post-transfection; parent: est. 100; read off a plot
[2] = biological target: C-terminally KGC-tagged Gag (Gag-KGC); assay: as above; conditions: 293T cells, 48 hours post-transfection; parent: est. 100; read off a plot

Q: With “C-terminally KGC-tagged Gag (Gag-KGC) S487A” as the substance, how does the percent of parent [1] read?
A: 35%

Q: “N-terminally KGN-tagged Vpr (KGN-Vpr) (from UniProt P12520) Q44E” was tested. Which percent of parent [2] did it give?
A: 30%
